Fraction of oligomers data for three substances are collected here from article PMC9676983.

Among the targets are α-synuclein A30P (UniProt P37840); α-synuclein A53T (UniProt P37840); α-synuclein E46K (UniProt P37840).
Common to all, as to test: SEC

Turning to “α-synuclein A30P (from UniProt P37840 1-140) (natural protein)”, the fraction of oligomers with α-synuclein A30P came to 71.6%.
With “α-synuclein A53T (from UniProt P37840 1-140) (natural protein)”, the fraction of oligomers with α-synuclein A53T came out at 87.8%.
In the assay with α-synuclein E46K, “α-synuclein E46K (from UniProt P37840 1-140) (natural protein)” showed a fraction of oligomers of 92.1%.
